Test results: patent publication US20210388107A1 (BYONDIS B V, published 2021)
Like-named read-outs stand apart in the source and are kept apart here.

How the values were obtained:
[1] = target: T1, human SIRPαBIT expressed on cells (human, UniProt P78324 31-504); experiment: flow cytometry, U937 cells
T1 construct: endogenous on U937 cells or transiently expressed on ExpiCHO-S cells; in the SHP-1 assay a ProLink-tagged form on Jurkat cells; also called huSIRPαBIT; U937 cells (huSIRPαBIT)
Description: (§1) After an incubation time of 30 min at 4° C., the cells were washed three times with ice-cold FACS buffer and 50 μl/well secondary mAb (for human antibodies, AffiniPure F(ab′)₂ fragment Goat-anti-human IgG-APC, 1:6,000 dilution, Jackson Immuno Research was added and for mouse antibodies, AffiniPure Fab fragment Goat Anti-Mouse IgG (H+L)-Alexa Fluor 488, 1:1,000 dilution, Jackson Immuno Research was added). After 30 min at 4° C., cells were washed twice and resuspended in 150 μl FACS buffer. Fluorescence intensities were determined by flow cytometry (BD FACSVerse, Franklin Lakes, N.J.) and indicated as the median fluorescence intensity (MFI-Median) for U937 cells and the mean fluorescence intensity (MFI-Mean) for ExpiCHO-S cells. Curves were fitted by nonlinear regression using the sigmoidal dose-response equation with variable slope (four parameters) in GraphPad Prism (version 7.02 for Windows, GraphPad, San Diego, Calif.). EC₅₀ values were calculated as the concentration in μg/ml that gives a response half way between bottom and top of the curve, when using a 4-parameter logistic fit.

[2] = target: T2, human SIRPα1 expressed on cells (human, UniProt P78324 31-504); experiment: flow cytometry, ExpiCHO-S cells
T2 construct: whole, on cells; also called huSIRPα1; ExpiCHO-S (huSIRPα1)
Description: as §1

[3] = target: T1, human SIRPαBIT expressed on cells; experiment: flow cytometry, ExpiCHO-S cells
Description: as §1

[4] = target: T3, human SIRPβ1v1, AVI-tagged, biotinylated, monomeric form (human, UniProt O00241 30-371, biotinylated); experiment: SPR, captured monomeric antigen
T3 construct: also called huSIRPβ1v1
Description: (§2) Surface Plasmon Resonance (SPR) assay: Affinity analysis was performed by single cycle kinetics analysis on a BiaCore™ T200 instrument (GE life Sciences) at 25° C. […] The streptavidin surface was prepared by injection of biotin capture reagent. […] After a 1 min baseline stabilization, five increasing concentrations of the anti-SIRPα antibodies were injected with an association time of 150 sec. […] The concentration range was chosen around the expected KD. Regeneration was performed according to the manufacturer's protocol with 6M guanidine-HCl, 0.25M NaOH solution. Double reference subtraction was performed on the obtained sensorgrams using a (biotin capture reagent bound) reference flow channel and a running buffer injection. Sensorgrams were fitted with a 1:1 Langmuir model for all tested anti-SIRP antibodies. The kinetic parameters (kₐ, kd and KD) were calculated using the BiaCore™ T200 evaluation software (v3.1). huSIRPβ₁ᵥ₁ and huSIRPβ₁ᵥ₂ were tested in their monomeric form.

[5] = target: T4, human SIRPβ1v2, AVI-tagged, biotinylated, monomeric form (human, UniProt Q5TFQ8 30-371, biotinylated); experiment: SPR, captured monomeric antigen
T4 construct: also called huSIRPβ1v2
Description: as §2

[6] = target: T5, human SIRPα1 extracellular domain 1-370, Avi-FXa-Fc tag (human, biotinylated); experiment: SPR, captured biotinylated antigen
T5 construct: also called huSIRPα1; v2
Description: (§3) Surface Plasmon Resonance (SPR) assay: Affinity analysis was performed by single cycle kinetics analysis on a Surface Plasmon Resonance apparatus (BiaCore™ T200 system, GE Life Sciences) at 25° C. […] For each step an association time of 150 sec was used, followed by a dissociation time of 600 sec after the highest concentration only, all at a flow rate of 30 μl/min. Regeneration was performed with 6 M guanidine-HCl, 0.25 M NaOH solution (120 sec with flow rate of 30 μl/min). […] Sensorgrams were fitted with a 1:1 Langmuir model for all tested anti-SIRP antibodies. The kinetic parameters (association rate [kₐ], dissociation rate [kd] and binding constant, also referred to as equilibrium dissociation constant or binding affinity [KD]) were calculated using BiaCore™ T200 evaluation software (v3.1).

[7] = target: T6, human SIRPαBIT, extracellular domain 1-370, Avi-FXa-Fc tag (human, biotinylated); experiment: SPR, captured biotinylated antigen
T6 construct: also called huSIRPαBIT; v1
Description: as §3

[8] = target: T7, human SIRPγ, extracellular domain, Avi-FXa-Fc tag (human, biotinylated); experiment: SPR, captured biotinylated antigen
T7 construct: also called huSIRPγ
Description: as §3

[9] = target: T8, human SIRPβ1v2, extracellular domain, Avi-FXa-Fc tag (human, biotinylated); experiment: SPR, captured biotinylated antigen
T8 construct: also called huSIRPβ1v2
Description: as §3

[10] = target: T9, human SIRPβ1v1, extracellular domain, Avi-FXa-Fc tag (human, biotinylated); experiment: SPR, captured biotinylated antigen
T9 construct: also called huSIRPβ1v1
Description: as §3

[11] = target: T1, human SIRPαBIT expressed on cells; experiment: flow cytometry, U937 cells; remark: listed apart in the source
Description: (§4) After an incubation time of 30 min at 4° C., the cells were washed twice with ice-cold FACS buffer. Then, 50 μl/well secondary mAb was added (AffiniPure™ F(ab′)₂ fragment Goat-anti-human IgG-APC, 1:6,000 dilution, Jackson Immuno Research). After 30 min at 4° C., cells were washed twice and resuspended in 150 μl FACS buffer. Fluorescence intensities were determined by flow cytometry with the FACSVerse (BD Biosciences) and indicated as the median fluorescence intensity (MFI-Median) for U937 cells and the mean fluorescence intensity (MFI-Mean) for ExpiCHO-S cells. Curves were fitted by nonlinear regression with a variable slope (four parameters) in GraphPad Prism (version 7.02 for Windows, GraphPad, San Diego, Calif.). EC₅₀ values were calculated as the concentration in μg/ml that gives a response half way between bottom and top of the curve, when using a 4-parameter logistic fit.

[12] = target: T2, human SIRPα1 expressed on cells; experiment: flow cytometry, ExpiCHO-S cells; remark: listed apart in the source
Description: as §4

[13] = target: T1, human SIRPαBIT expressed on cells; experiment: flow cytometry, ExpiCHO-S cells; remark: listed apart in the source
Description: as §4

T1 sequence (P78324 31-504 limits assumed): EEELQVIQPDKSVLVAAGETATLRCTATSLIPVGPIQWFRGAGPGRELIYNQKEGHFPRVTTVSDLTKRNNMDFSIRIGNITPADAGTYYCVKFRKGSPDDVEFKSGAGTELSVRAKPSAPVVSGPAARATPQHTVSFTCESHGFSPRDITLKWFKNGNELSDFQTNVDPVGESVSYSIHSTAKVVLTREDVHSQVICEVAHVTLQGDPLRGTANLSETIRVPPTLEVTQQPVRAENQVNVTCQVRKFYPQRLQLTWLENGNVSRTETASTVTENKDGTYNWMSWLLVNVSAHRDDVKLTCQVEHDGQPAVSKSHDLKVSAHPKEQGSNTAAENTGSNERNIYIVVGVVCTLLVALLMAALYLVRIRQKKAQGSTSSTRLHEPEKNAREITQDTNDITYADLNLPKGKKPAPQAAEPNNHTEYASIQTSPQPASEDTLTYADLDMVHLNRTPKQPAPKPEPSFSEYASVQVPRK
T4 sequence (Q5TFQ8 30-371): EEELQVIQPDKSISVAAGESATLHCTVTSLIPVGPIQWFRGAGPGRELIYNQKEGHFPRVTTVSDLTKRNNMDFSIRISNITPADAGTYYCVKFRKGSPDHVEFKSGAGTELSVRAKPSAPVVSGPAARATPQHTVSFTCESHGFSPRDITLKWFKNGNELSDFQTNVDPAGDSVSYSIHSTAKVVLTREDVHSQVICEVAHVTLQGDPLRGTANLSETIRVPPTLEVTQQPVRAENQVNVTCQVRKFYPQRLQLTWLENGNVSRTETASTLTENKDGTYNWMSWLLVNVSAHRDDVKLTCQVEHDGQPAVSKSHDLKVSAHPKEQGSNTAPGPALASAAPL
T3 sequence (O00241 30-371): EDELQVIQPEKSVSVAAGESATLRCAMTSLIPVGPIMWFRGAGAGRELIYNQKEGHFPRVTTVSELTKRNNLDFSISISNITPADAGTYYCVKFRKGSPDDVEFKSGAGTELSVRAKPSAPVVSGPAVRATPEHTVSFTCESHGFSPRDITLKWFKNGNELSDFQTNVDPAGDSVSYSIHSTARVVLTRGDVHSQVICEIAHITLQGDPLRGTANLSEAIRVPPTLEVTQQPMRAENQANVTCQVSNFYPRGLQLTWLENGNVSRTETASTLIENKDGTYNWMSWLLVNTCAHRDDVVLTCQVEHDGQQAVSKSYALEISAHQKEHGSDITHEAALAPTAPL
T2 sequence (P78324 other isoform, or with tags, fused parts or gaps limits assumed): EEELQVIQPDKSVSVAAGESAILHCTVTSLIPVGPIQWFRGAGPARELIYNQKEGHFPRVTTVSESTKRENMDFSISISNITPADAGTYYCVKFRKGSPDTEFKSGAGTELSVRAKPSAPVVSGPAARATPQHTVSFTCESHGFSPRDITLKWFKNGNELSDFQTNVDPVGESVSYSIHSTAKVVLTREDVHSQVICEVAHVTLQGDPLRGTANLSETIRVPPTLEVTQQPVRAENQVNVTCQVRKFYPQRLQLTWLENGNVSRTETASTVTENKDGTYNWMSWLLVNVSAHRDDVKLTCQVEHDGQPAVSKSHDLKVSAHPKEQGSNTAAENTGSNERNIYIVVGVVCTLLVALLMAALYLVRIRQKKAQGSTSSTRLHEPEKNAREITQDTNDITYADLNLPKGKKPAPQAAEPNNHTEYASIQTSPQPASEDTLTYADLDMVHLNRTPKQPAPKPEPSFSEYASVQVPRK

EC50 [1] [µg/mL]	EC50 [2] [µg/mL]	EC50 [3] [µg/mL]	Kd [4] [nM]	Kd [5] [nM]	Kd [6] [nM]	Kd [7] [nM]	Kd [8] [nM]	Kd [9] [nM]	Kd [10] [nM]	EC50 [11] [µg/mL]	EC50 [12] [µg/mL]	EC50 [13] [µg/mL]	Binder
0.14	0.08	0.1	0.0147	0.0274	0.0144	< 0.01	< 0.01	< 0.01	0.0356	–	–	–	KWAR23 (mouse IgG2a) (antibody) heavy: EVQLQQSGAELVKPGASVKLSCTASGFNIKDYYIHWVQQRTEQGLEWIGRIDPEDGETKYAPKFQDKATITADTSSNTAYLHLSSLTSEDTAVYYCARWGAYWGQGTLVTVSSAKTTAPSVYPLAPVCGDTTGSSVTLGCLVKGYFPEPVTLTWNSGSLSSGVHTFPAVLQSDLYTLSSSVTVTSSTWPSQSITCNVAHPASSTKVDKKIEPRGPTIKPCPPCKCPAPNLLGGPSVFIFPPKIKDVLMISLSPIVTCVVVDVSEDDPDVQISWFVNNVEVHTAQTQTHREDYNSTLRVVSALPIQHQDWMSGKEFKCKVNNKDLPAPIERTISKPKGSVRAPQVYVLPPPEEEMTKKQVTLTCMVTDFMPEDIYVEWTNNGKTELNYKNTEPVLDSDGSYFMYSKLRVEKKNWVERNSYSCSVVHEGLHNHHTTKSFSRTPGK light: QIVLTQSPAIMSASPGEKVTLTCSASSSVSSSYLYWYQQKPGSSPKLWIYSTSNLASGVPARFSGSGSGTSYSLTISSMEAEDAASYFCHQWSSYPRTFGAGTKLELKRADAAPTVSIFPPSSEQLTSGGASVVCFLNNFYPKDINVKWKIDGSERQNGVLNSWTDQDSKDSTYSMSSTLTLTKDEYERHNSYTCEATHKTSTSPIVKSFNRNEC
–	–	–	9.7	0.188	–	–	–	–	–	0.24	0.14	0.12	40A-2 (40AVH2VL4 humanized IgG2-kappa, HC-A378S) (antibody) heavy: EVQLVQSGAEVVKPGASVKLSCKASGSTFTSYWMHWVKQAPGQGLEWIGAIYPVNSDTTYNQKFKGKATLTVDKSASTAYMELSSLRSEDTAVYYCTRSFYYSLDAAWFVYWGQGTLVTVSSASTKGPSVFPLAPCSRSTSESTAALGCLVKDYFPEPVTVSWNSGALTSGVHTFPAVLQSSGLYSLSSVVTVPSSNFGTQTYTCNVDHKPSNTKVDKTVERKCCVECPPCPAPPVAGPSVFLFPPKPKDTLMISRTPEVTCVVVDVSHEDPEVQFNWYVDGVEVHNAKTKPREEQFNSTFRVVSVLTVVHQDWLNGKEYKCKVSNKGLPAPIEKTISKTKGQPREPQVYTLPPSREEMTKNQVSLTCLVKGFYPSDIAVEWESNGQPENNYKTTPPMLDSDGSFFLYSKLTVDKSRWQQGNVFSCSVMHEALHNHYTQKSLSLSPGK light: DIQMTQSPSSLSASVGDRVTITCRASQDIGSRLNWLQQKPGKAPKRLIYATSSLDSGVPSRFSGSGSGTEFTLTISSLQPEDFATYYCLQYASSPFTFGGGTKVEIKRTVAAPSVFIFPPSDEQLKSGTASVVCLLNNFYPREAKVQWKVDNALQSGNSQESVTEQDSKDSTYSLSSTLTLSKADYEKHKVYACEVTHQGLSSPVTKSFNRGEC
